Paper PMC11531568, “Single-molecule imaging and molecular dynamics simulations reveal early activation of the MET receptor in cells” (Nature Communications, 2024)
Numbering of substitutions follows the chain as printed. In names and notes the source's numbering stands.

B1: InlB321 K280C variant (with C242A), fluorophore-labeled (domain or fragment)
chain: ETITVPTPIKQIFSDDAFAETIKDNLKKKSVTDAVTQNELNSIDQIIANNSDIKSVQGIQYLPNVTKLFLNGNKLTDIKPLANLKNLGWLFLDENKVKDLSSLKDLKKLKSLSLEHNGISDINGLVHLPQLESLYLGNNKITDITVLSRLTKLDTLSLEDNQISDIVPLAGLTKLQNLYLSKNHISDLRALAGLKNLDVLELFSQEALNKPINHQSNLVVPNTVKNTDGSLVTPEIISDDGDYECPNVKWHLPEFTNEVSFIFYQPVTIGKAKARFHGRVTQPLKE
modifications: Cy3B or ATTO 647N attached by maleimide chemistry to the single cysteine at position 280
notes: Internalin B (InlB), invasion protein of Listeria monocytogenes, amino acids 36-321 of the full-length InlB (cap, leucine-rich repeat and inter-repeat region); The donor-labeled (Cy3B) and acceptor-labeled (ATTO 647N) batches of this variant are written as one molecule; Vector pETM30; also called T variant; tail
B2: InlB321 K64C variant (with C242A), fluorophore-labeled (domain or fragment)
chain: B1 chain with K29C, C245K
modifications: Cy3B or ATTO 647N attached by maleimide chemistry to the single cysteine at position 64
notes: Internalin B (InlB), invasion protein of Listeria monocytogenes, amino acids 36-321 of the full-length InlB (cap, leucine-rich repeat and inter-repeat region); The donor-labeled (Cy3B) and acceptor-labeled (ATTO 647N) batches of this variant are written as one molecule; Vector pETM30; also called H variant; head

Molecular target: the molecule itself
Assay: single-molecule photobleaching step analysis; U-2 OS cells labeled with a single Cy3B-labeled InlB321 variant; number of InlB321 in one spot on the plasma membrane

Protein	stoichiometry N
B1	2
B2	2
